Results published in patent US20250025499A1 (published 2025).

How the values were obtained:
[1] = biological target: T1, SF3B1 K700E peptide on HLA-B*40:01 (human); assay: peptide titration 51Cr-release assay; clone 24 against autologous LCL pulsed with varying peptide concentrations; T cell clone or line
T1 peptide: QEVRTISAL
Method: (§1) LCL were pulsed with QEVRTISAL (SEQ ID NO: 1) peptide at 1000 ng/ml prior to co-culture (>5 biological replicates per HLA). […] The tested peptides include […] (SEQ ID NO: 50), […] (SEQ ID NO: 64), and […] (SEQ ID NO: 65). QEVRTISAL (SEQ ID NO: 1) peptide and the wild-type equivalent QKVRTISAL (SEQ ID NO: 2) were included as controls (3 technical replicate experiments). […] For all experiments, mean and standard error of the mean (SEM) are shown.
(§2) Cytotoxicity was measured in short-term (4-hour) assays using 51Cr-labeled target cells. Briefly, target cells were labeled with ⁵¹Cr overnight (cell lines) or for 6 hours (primary leukemia) at 37° C. and 5% CO₂. Effector cells were added to labeled target cells and incubated for 4 hours. After co-incubation, supernatant was harvested for γ-counting. Specific lysis was calculated using a standard formula. Targets used included autologous LCL with and without peptides in varying concentrations. All targets were washed to remove excess 51Cr and residual interferon-γ or peptide before co-culture initiation.

[2] = biological target: T2, SF3B1 K700E epitope with alanine at position 4 peptide on HLA-B*40:01 (human); assay: killing
T2 peptide: QEVATISAL
Method: as §1, §2

[3] = biological target: T3, SF3B1 wild-type peptide on HLA-B*40:01 (human); assay: killing
T3 peptide: QKVRTISAL
Method: as §1, §2

[4] = biological target: T4, SF3B1 K700E epitope with alanine at position 3 peptide on HLA-B*40:01 (human); assay: killing
T4 peptide: QEARTISAL
Method: as §1, §2

[5] = biological target: T5, SF3B1 K700E epitope with alanine at position 9 peptide on HLA-B*40:01 (human); assay: killing
T5 peptide: QEVRTISAA
Method: as §1, §2

[6] = biological target: T6, alkylglycerone-phosphate synthase (AGPS) peptide on HLA-B*40:01 (human); assay: killing
T6 peptide: DETRTIISL
Method: as §1, §2

[7] = biological target: T7, SF3B1 K700E epitope with alanine at position 6 peptide on HLA-B*40:01 (human); assay: killing
T7 peptide: QEVRTASAL
Method: as §1, §2

[8] = biological target: T8, SF3B1 K700E epitope with valine at position 8 peptide on HLA-B*40:01 (human); assay: killing
T8 peptide: QEVRTISVL
Method: as §1, §2

[9] = biological target: T9, mitochondrial trifunctional enzyme subunit alpha (HADHA) peptide on HLA-B*40:01 (human); assay: killing
T9 peptide: PEERTIEYL
Method: as §1, §2

[10] = biological target: T10, SF3B1 K700E peptide on HLA-B*40:02 (human); assay: killing
T10 peptide: QEVRTISAL
Method: as §1, §2

[11] = biological target: T11, Gem-associated protein 5 (GEMIN5) peptide on HLA-B*40:01 (human); assay: killing
T11 peptide: IEPRTIFCL
Method: as §1, §2

[12] = biological target: T12, SF3B1 K700E epitope with alanine at position 1 peptide on HLA-B*40:01 (human); assay: killing
T12 peptide: AEVRTISAL
Method: as §1, §2

[13] = biological target: T13, SF3B1 K700E epitope with glycine at position 8 peptide on HLA-B*40:01 (human); assay: killing
T13 peptide: QEVRTISGL
Method: as §1, §2

[14] = biological target: T14, spermatogenesis-associated protein 1 (SPATA1) peptide on HLA-B*40:01 (human); assay: killing
T14 peptide: VEDRTIRQL
Method: as §1, §2

[15] = biological target: T15, SF3B1 K700E epitope with alanine at position 2 peptide on HLA-B*40:01 (human); assay: killing
T15 peptide: QAVRTISAL
Method: as §1, §2

[16] = biological target: T16, SF3B1 K700E epitope with alanine at position 7 peptide on HLA-B*40:01 (human); assay: killing
T16 peptide: QEVRTIAAL
Method: as §1, §2

[17] = biological target: T17, SF3B1 K700E epitope with alanine at position 5 peptide on HLA-B*40:01 (human); assay: killing
T17 peptide: QEVRAISAL
Method: as §1, §2

[18] = biological target: T18, CBFB-MYH11 type A peptide on HLA-B*40:01 (human); assay: killing
T18 peptide: REEMEVHEL
Method: as §1, §2

B1: TCR24 (SF3B1^K700E/B*40:01-specific TCR from clone 24) (TCR, V domains shown)
Valpha: AQSVTQPDIHITVSEGASLELRCNYSYGATPYLFWYVQSPGQGLQLLLKYFSGDTLVQGIKGFEAEFKRSQSSFNLRKPSVHWSDAAEYFCAVAAKDSSYKLIFGSGTRLLVRP
Vbeta: SAVISQKPSRDICQRGTSLTIQCQVDSQVTMMFWYRQQPGQSLTLIATANQGSEATYESGFVIDKFPISRPNLTFSTLTVSNMSPEDSSIYLCSDRGQVVGETQYFGPGTRLLVL
EC50 of peptide [1]: ~0.1 ng/mL | binding result [2]: no recognition | binding result [3]: no recognition | binding result [4]: recognises | binding result [5]: no recognition | binding result [6]: no recognition | binding result [7]: no recognition | binding result [8]: recognises | binding result [9]: no recognition | binding result [10]: no recognition | binding result [11]: no recognition | binding result [12]: recognises | binding result [13]: recognises | binding result [14]: no recognition | binding result [15]: no recognition | binding result [16]: recognises | binding result [17]: no recognition | binding result [18]: no recognition
